How the values were obtained:
Experiment in all cases: split reporter (BiFC, NanoBiT); receptor-SmBiT and LgBiT-mini-G, LgBiT-mini-GΔα5 or LgBiT-β-arrestin transiently co-transfected in HEK293T; live cells 48 h after transfection; NanoBiT PPI system (Promega), luminescence normalised by the expression of both constructs; in the mutant and ΔHA panels the mini-GΔα5 signal was subtracted and results given as a percentage of the reference construct
[1] = molecular target: ADGRL4-CTF1 F409A (human) (UniProt Q9HBW9)
[2] = molecular target: ADGRL4-CTF1 H408A (human) (UniProt Q9HBW9)
[3] = molecular target: ADGRL4-CTF1 I411A (human) (UniProt Q9HBW9)
[4] = molecular target: ADGRL4-CTF1 L412A (human) (UniProt Q9HBW9)
[5] = molecular target: ADGRL4-CTF1 S414A (human) (UniProt Q9HBW9)

Gq activity, percent of wild-type CTF1 (% of wild-type CTF1) [1]: 12
reduction of Gq activity, percent of wild-type CTF1 [2]: > 50%
reduction of Gq activity, percent of wild-type CTF1 [3]: > 50%
reduction of Gq activity, percent of wild-type CTF1 [4]: > 50%
reduction of Gq activity, percent of wild-type CTF1 [5]: > 50%
Substance: LgBiT-mini-Gq (mini-Gs/q version 70)
